The record followed here is the supplement of paper PMC9170038.

The subject of this series is MS2 coat protein. Nature of the series: apparent KD of MS2 coat protein; higher = weaker reporter binding. The following applies: Eterna round: R107. The method, boiled down: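 Apparent KD per design is the median of normalised cluster binding-curve fits. Designed RNA switches transcribed on-chip from Illumina sequencing clusters were titrated with SNAP-549-labelled MS2 coat protein in twofold steps from 0.7 or 1.5 nM to 3 µM, with 0.8–1.5 h down to 10–20 min per step. Buffer: 100 mM Tris-HCl pH 7.5, 80 mM KCl, 4 mM MgCl2, without or with constant ligand.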

The mark [1] stands for this setting: input ligand: theophylline 20 uM.
Setting [2] is: input ligand: theophylline 2 mM.
Where [3] appears, read: input ligand: tryptophan 2.4 mM.

Consider “UGUAUGGACUGAAGGAGCGCCUCAAAACAUGAGGAUCACCCAUGUGGACAAUAAGUCCUUGGGCAGGUAGGUCGCAGUCCAUACU [ArgBX 6 #StaticStem #MS2Late]”, for which the “apparent KD of MS2 coat protein” value is, setting by setting: (input ligand: arginine 13.2 mM) 0.0814 µM; (input ligand: none) 0.05 µM; under setting [1], 0.0846 µM; under setting [2], 0.0853 µM; under setting [3], 0.0609 µM.
As to “UGUAUGGACUGAAGGAGCGGAUGAUAACCUGAGGAUCACCCGGGUAAUAAGGCGAAAGCCAUCCAGGUAGGUCGCAGUCCAUACU”, the “apparent KD of MS2 coat protein” value was 0.0532 µM (input ligand: arginine 13.2 mM); 0.101 µM (input ligand: none); 0.111 µM under setting [1]; 0.126 µM under setting [2]; 0.0829 µM under setting [3].
For the sequence “UGUAUGGACUGAAGGAGCGGGUAAUAAACCUGAGGAUCACCCAGGUAAUAGGCGAAAGCCGCCCAGGUAGGUCGCAGUCCAUACU”, the “apparent KD of MS2 coat protein” value reads like this: (input ligand: arginine 13.2 mM) 0.0132 µM; (input ligand: none) 0.0135 µM; under setting [1], 0.0137 µM; under setting [2], 0.0117 µM; under setting [3], 0.0125 µM.
For the sequence “UGUAUGGACUGAAGGAGCGGGUUGAUAACUUGAGGAUCACCCAGGUAAAAGGCGAAAGCCGCCCAGGUAGGUCGCAGUCCAUACU”, the “apparent KD of MS2 coat protein” value is, setting by setting: (input ligand: arginine 13.2 mM) 0.0402 µM; (input ligand: none) 0.0456 µM; under setting [1], 0.0549 µM; under setting [2], 0.0617 µM; under setting [3], 0.0492 µM.
On to “UGUAUGUGAUCUGAUACCAGAGUGAAUAAACGCGAAAGCGCCUGAGGAUCACCCUGGUAACUCCCUUGGCAGCAGAUCGCAUACU”, for which the “apparent KD of MS2 coat protein” value reads like this: (input ligand: arginine 13.2 mM) 0.119 µM; (input ligand: none) 0.569 µM; under setting [1], 0.789 µM; under setting [2], 0.0745 µM; under setting [3], 1.39 µM.
Turning to “UGUAUGUGAUCUGAUACCAGCGAUGAUAACCUGAGGAUCACCCUGGUAAGGCGAAAGCCUCGCCCUUGGCAGCAGAUCGCAUACU”, the “apparent KD of MS2 coat protein” value stood at 0.407 µM (input ligand: arginine 13.2 mM); 0.583 µM (input ligand: none); 0.273 µM under setting [1]; 0.024 µM under setting [2]; 0.8 µM under setting [3].
Take “UGUAUGUGAUCUGAUACCAGCUUUGAUAACCUGAGGAUCACCCUGGUAAAGGCGAAAGCCGGCCCUUGGCAGCAGAUCGCAUACU”: the “apparent KD of MS2 coat protein” value was determined as 0.0473 µM (input ligand: arginine 13.2 mM); 0.0585 µM (input ligand: none); 0.0561 µM under setting [1]; 0.0246 µM under setting [2]; 0.0597 µM under setting [3].
Consider “UGUAUGUGAUCUGAUACCAGUCCAACUGGUAAAAUAUGAGGAUCACCCAUAUAAAAUUGGGACCCUUGGCAGCAGAUCGCAUACU”, for which the “apparent KD of MS2 coat protein” value reads like this: (input ligand: arginine 13.2 mM) 0.108 µM; (input ligand: none) 0.265 µM; under setting [1], 0.632 µM; under setting [2], 0.129 µM; under setting [3], 0.492 µM.
As for “UGUAUGUGAUCUGAUACCAGUGACACGAAAGUGAAUCGCUUGAGGAUCACCCAAGUAAAACACCCUUGGCAGCAGAUCGCAUACU [Full moving switch bubble 1]”, the “apparent KD of MS2 coat protein” value is, setting by setting: (input ligand: arginine 13.2 mM) 0.0203 µM; (input ligand: none) 0.0156 µM; under setting [1], 0.0235 µM; under setting [2], 0.025 µM; under setting [3], 0.0156 µM.
Consider “UUAAUGGAGCUUUUAUUUACGAUUUCUGAUACCAGUGUUUCAUUUCACCCUUGGCAGCAGUGACAUGAGGAUCACCCAUGUAAUA [JR_Nu_SSTheophyA_Sub021]”, for which the “apparent KD of MS2 coat protein” value was found to be 0.0303 µM (input ligand: arginine 13.2 mM), 0.0338 µM under setting [1] and 0.0259 µM under setting [3].
“UUACAACUAAUGGAUACCAGCCGCGUGCUAGUGGUAGCAUACAUGAGGAUCACCCAUGUCGGCCCUUGGCAGCCACGCCCAUGCU [theeternabot_exclusion_MS2_Theo_B_2]”: the “apparent KD of MS2 coat protein” value reads like this: (input ligand: arginine 13.2 mM) 0.0137 µM; under setting [1], 0.0217 µM; under setting [3], 0.0142 µM.
For the sequence “UUAUAUUAUCGAAGGAGCGUCACAUGAGGAUCACCCAUGUACAUGAGGAUCACCCAUGUGUGGCAGGUAGGUCGCGAUAUAUAAC [Exclusion Arginine B GF9]”, the “apparent KD of MS2 coat protein” value reads like this: (input ligand: arginine 13.2 mM) 0.12 µM; under setting [1], 0.25 µM; under setting [2], 0.301 µM; under setting [3], 0.327 µM.
For “UUAUGCAGGUCGGCCGCCACUACACACAUGAGGAUCACCCAUGUAGUUACUGGGUGAAGUGGCAGUAGGACCGGGACCUGCAUAU [Brourdmod05]”, the “apparent KD of MS2 coat protein” value (input ligand: arginine 13.2 mM) came out at 0.0845 µM, the “apparent KD of MS2 coat protein” value under setting [1] amounted to 0.449 µM and the “apparent KD of MS2 coat protein” value under setting [2] is 0.832 µM.
As to “UUAUUUAUAAUGGAUACCAGUGCUGUGGCCCGGCAUCCUGACAUGAGGAUCACCCAUGUGUACCCUUGGCAGCUGUUAUGGGUUU [XTheo B #20]”, the “apparent KD of MS2 coat protein” value runs as follows: (input ligand: arginine 13.2 mM) 0.0207 µM; under setting [1], 0.0283 µM; under setting [3], 0.0193 µM.
Regarding “UUCAAAGGGAACGGUGCUGGUGACAGAGAUACCAGCGCGGUAACGCGCCCUUGGCAGCUCAGAACAUGAGGAUCACCCAUGUAAU [Exclusion Theophylline A GF23]”, the “apparent KD of MS2 coat protein” value was determined as 0.0159 µM (input ligand: arginine 13.2 mM), 0.0207 µM under setting [1] and 0.0154 µM under setting [3].
In the case of “UUGGUACAUGAGGAUCACCCAUGUACUGAAGGAGCGGGACGAAUCUCAGGUAGGUCGCAGACAUGAGGAUCACCCAUGUAUGGCU [Exclusion Arginine A GF 17]”, the “apparent KD of MS2 coat protein” value runs as follows: (input ligand: arginine 13.2 mM) 0.0102 µM; (input ligand: none) 0.0127 µM; under setting [1], 0.0146 µM; under setting [2], 0.0131 µM; under setting [3], 0.0123 µM.
Consider “UUGUAUAUGCGAAGGAGCGGGAAAUAUAUAUAUAUAAUCCUAACAUGAGGAUCACCCAUGUCCCAGGUAGGUCGCGCAUAUAUGG [12.F]”, for which the “apparent KD of MS2 coat protein” value by setting is: (input ligand: arginine 13.2 mM) 0.0805 µM; (input ligand: none) 0.0695 µM; under setting [1], 0.0807 µM; under setting [2], 0.0879 µM; under setting [3], 0.0783 µM.
With “UUGUUGUUUGGAAGGAGCGUGUAAGAUUAAGAACAUGAGGAUCACCCAUGUUGUAAGGUAGCACAGGUAGGUCGCCGGGUGGUGG [11.T]”, the “apparent KD of MS2 coat protein” value reads like this: (input ligand: arginine 13.2 mM) 0.0193 µM; (input ligand: none) 0.0144 µM; under setting [1], 0.0244 µM; under setting [2], 0.0176 µM; under setting [3], 0.0151 µM.
As for “UUUGAAAUAACAGAUACCAGCGUGUUAUAAAACAUGAGGAUCACCCAUGUAGUGAUCAAGCGCCCUUGGCAGCUGGUAUUUUAGG [7.F]”, the “apparent KD of MS2 coat protein” value amounted to 0.118 µM (input ligand: arginine 13.2 mM), 0.208 µM under setting [1] and 0.172 µM under setting [3].
